In publication PMC5105194:

Columns and labels:
[1] = target: retromer cargo selective complex VPS26/VPS29/VPS35 (UniProt Q96QK1); experiment: ITC; TBC proteins (100∼200 μM) injected into retromer proteins (8–16 μM); 20 °C; 20 mM Tris pH 8, 200 mM NaCl, 5 mM βME; one set of sites model
[2] = target: AlexaFluor488-labelled Rab7-GMPPNP (aa 1–186-Cys and Cys143Ser) (UniProt P51149); experiment: fluorescence polarisation; fluorescence anisotropy, direct binding: proteins titrated into 50 nM AlexaFluor488-labelled Rab7-GMPPNP; 20 °C; 20 mM Tris pH 8.0, 100 mM NaCl, 2 mM MgCl2, 5 mM βME; single-site 1:1 model
TBC1d5^TBC/CSC complex = TBC1d5^TBC/CSC complex (UniProt Q96QK1); experiment: fluorescence polarisation; fluorescence anisotropy, competition: unlabelled Rab7-GMPPNP titrated into 8 μM TBC1d5/CSC and 50 nM labelled Rab7-GMPPNP; 20 °C; competitive binding one-site model

Chain of TBC1d5^TBC (Q92609 whole entry, the tested form may be a part): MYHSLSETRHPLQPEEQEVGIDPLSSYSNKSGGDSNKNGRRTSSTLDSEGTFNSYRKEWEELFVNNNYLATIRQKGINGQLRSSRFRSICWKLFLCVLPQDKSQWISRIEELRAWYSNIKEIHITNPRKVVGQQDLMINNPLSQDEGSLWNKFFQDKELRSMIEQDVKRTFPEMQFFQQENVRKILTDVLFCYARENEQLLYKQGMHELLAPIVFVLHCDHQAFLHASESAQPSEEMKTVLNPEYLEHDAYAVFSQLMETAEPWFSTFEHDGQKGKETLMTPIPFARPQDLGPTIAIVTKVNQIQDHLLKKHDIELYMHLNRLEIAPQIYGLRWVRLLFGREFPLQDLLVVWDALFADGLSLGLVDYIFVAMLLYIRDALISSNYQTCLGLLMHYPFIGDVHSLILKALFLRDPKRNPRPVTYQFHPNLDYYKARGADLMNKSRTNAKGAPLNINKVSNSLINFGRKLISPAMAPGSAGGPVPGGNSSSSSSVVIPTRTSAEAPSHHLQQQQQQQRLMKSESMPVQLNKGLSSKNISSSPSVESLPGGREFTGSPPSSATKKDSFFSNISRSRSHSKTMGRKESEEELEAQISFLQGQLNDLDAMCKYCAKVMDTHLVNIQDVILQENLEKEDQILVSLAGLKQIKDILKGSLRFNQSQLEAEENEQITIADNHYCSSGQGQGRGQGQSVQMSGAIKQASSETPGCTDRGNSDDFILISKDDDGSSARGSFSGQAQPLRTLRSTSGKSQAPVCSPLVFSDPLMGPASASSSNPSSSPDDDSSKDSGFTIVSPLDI
Chain of AlexaFluor488-labelled Rab7-GMPPNP (aa 1–186-Cys and Cys143Ser) (P51149 other isoform, or with tags, fused parts or gaps C143S): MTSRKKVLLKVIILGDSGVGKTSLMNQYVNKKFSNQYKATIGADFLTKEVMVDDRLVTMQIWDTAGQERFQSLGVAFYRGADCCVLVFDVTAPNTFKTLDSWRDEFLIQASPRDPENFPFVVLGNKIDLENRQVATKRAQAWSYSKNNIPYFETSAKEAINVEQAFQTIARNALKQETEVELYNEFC

“TBC1d5^TBC (from UniProt Q92609 1-795) (domain or fragment)” gave a Kd [1] of 0.22 µM and a stoichiometry N [1] of 1.

“TBC1d5^TBC/CSC complex (from UniProt Q96QK1 1-796; Q9UBQ0 1-182; O75436 1-327)” gave a Kd [2] of 11.5 µM.

For “unlabelled Rab7-GMPPNP (from UniProt P51149 1-86) (natural protein)”, the Kd (TBC1d5^TBC/CSC complex) was 36 µM.
